Measured values as given in paper PMC5720862 (Developmental cell, 2017).
Where two headings read alike, the source gives them in different places.

T1: DSK2A-MBP (Arabidopsis thaliana, UniProt Q9SII9 1-538)
T1 sequence (looked up): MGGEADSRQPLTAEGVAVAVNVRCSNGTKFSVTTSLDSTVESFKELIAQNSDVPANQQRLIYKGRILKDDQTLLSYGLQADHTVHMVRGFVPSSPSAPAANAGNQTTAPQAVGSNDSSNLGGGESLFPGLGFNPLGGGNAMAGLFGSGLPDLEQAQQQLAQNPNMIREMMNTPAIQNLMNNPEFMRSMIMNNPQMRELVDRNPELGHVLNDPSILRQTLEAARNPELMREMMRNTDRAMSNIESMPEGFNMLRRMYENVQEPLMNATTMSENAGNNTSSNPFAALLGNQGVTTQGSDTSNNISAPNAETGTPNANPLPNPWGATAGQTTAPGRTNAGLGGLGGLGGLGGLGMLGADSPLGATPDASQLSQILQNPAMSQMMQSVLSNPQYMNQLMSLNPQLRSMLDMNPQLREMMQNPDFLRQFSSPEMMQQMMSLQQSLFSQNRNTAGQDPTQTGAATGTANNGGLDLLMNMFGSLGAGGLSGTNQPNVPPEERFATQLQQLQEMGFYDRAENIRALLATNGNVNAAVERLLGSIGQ

T2: GST-DSK2A (Arabidopsis thaliana, UniProt Q9SII9 1-538)
T2 sequence (looked up): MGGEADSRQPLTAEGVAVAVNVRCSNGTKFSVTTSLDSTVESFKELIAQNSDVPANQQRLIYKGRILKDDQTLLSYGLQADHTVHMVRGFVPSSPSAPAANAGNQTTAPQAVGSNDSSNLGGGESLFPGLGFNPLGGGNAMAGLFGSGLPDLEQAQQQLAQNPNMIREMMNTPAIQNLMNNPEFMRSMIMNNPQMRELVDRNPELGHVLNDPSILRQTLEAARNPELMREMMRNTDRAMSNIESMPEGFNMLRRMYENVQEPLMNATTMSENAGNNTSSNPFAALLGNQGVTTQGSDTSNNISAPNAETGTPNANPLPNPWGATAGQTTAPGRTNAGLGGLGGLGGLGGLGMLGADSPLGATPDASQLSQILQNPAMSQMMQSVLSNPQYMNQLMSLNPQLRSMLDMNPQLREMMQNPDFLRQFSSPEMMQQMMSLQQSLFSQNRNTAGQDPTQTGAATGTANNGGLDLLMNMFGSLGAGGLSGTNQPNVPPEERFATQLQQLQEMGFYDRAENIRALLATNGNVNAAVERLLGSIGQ

T3: DSK2A-HIS (Arabidopsis thaliana, UniProt Q9SII9 1-538)
T3 sequence (looked up): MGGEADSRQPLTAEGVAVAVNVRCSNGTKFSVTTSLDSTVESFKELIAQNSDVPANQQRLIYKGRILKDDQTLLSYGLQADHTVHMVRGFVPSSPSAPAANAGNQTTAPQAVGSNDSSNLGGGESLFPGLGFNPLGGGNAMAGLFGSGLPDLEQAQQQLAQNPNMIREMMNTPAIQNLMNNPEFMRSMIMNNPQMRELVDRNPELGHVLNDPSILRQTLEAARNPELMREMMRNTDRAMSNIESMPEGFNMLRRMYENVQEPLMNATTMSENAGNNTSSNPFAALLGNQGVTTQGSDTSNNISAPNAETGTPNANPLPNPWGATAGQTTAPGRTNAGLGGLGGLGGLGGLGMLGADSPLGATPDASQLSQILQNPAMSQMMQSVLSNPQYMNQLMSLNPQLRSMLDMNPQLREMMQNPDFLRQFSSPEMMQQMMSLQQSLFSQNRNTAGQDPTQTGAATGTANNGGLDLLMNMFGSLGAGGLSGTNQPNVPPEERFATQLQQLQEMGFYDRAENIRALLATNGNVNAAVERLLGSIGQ


Columns and labels:
Test in all cases: pull-down
DSK2A-MBP [1] = target: T1, DSK2A-MBP
GST-DSK2A = target: T2, GST-DSK2A
DSK2A-MBP [2] = target: T1, DSK2A-MBP; remark: listed apart in the source
DSK2A-HIS = target: T3, DSK2A-HIS

Row | Binder | binding result (DSK2A-MBP [1]) | other results
1 | GST-ATG8a (natural protein, Arabidopsis thaliana, UniProt Q8LEM4 1-117, looked up) MAKSSFKISNPLEARMSESSRIREKYPDRIPVIVEKAGQSDVPDIDKKKYLVPADLTVGQFVYVVRKRIKLGAEKAIFVFVKNTLPPTAALMSAIYEEHKDEDGFLYMTYSGENTFG | binds | 
2 | SINAT2-MBP (enzyme, Arabidopsis thaliana, UniProt Q9M2P4 1-308, looked up) MAPGGSALKEVMESNSTGMDYEVKTAKVEVNNNKPTKPGSAGIGKYGIHSNNGVYELLECPVCTNLMYPPIHQCPNGHTLCSNCKLRVQNTCPTCRYELGNIRCLALEKVAESLEVPCRYQNLGCHDIFPYYSKLKHEQHCRFRPYTCPYAGSECSVTGDIPTLVVHLKDDHKVDMHDGCTFNHRYVKSNPHEVENATWMLTVFNCFGRQFCLHFEAFQLGMAPVYMAFLRFMGDENEAKKFSYSLEVGAHGRKLTWQGIPRSIRDSHRKVRDSQDGLIIPRNLALYFSGGDRQELKLRVTGRIWKEE |  | binding result (GST-DSK2A): binds
3 | GST-ATG8f (natural protein, Arabidopsis thaliana, UniProt Q8VYK7 1-117, looked up) MAKSSFKQEHDLEKRRAEAARIREKYPDRIPVIVEKAEKSDIPTIDKKKYLVPADLTVGQFVYVIRKRIKLSAEKAIFIFVDNVLPPAGALMSSVYEEKKDDDGFLYVTYSGENTFG | binds | 
4 | BIN2, recombinant, of the in vitro pull-down with DSK2 (enzyme, Arabidopsis thaliana, UniProt Q39011 1-380, looked up) MADDKEMPAAVVDGHDQVTGHIISTTIGGKNGEPKQTISYMAERVVGTGSFGIVFQAKCLETGETVAIKKVLQDRRYKNRELQLMRVMDHPNVVCLKHCFFSTTSKDELFLNLVMEYVPESLYRVLKHYSSANQRMPLVYVKLYMYQIFRGLAYIHNVAGVCHRDLKPQNLLVDPLTHQVKICDFGSAKQLVKGEANISYICSRFYRAPELIFGATEYTTSIDIWSAGCVLAELLLGQPLFPGENAVDQLVEIIKVLGTPTREEIRCMNPHYTDFRFPQIKAHPWHKIFHKRMPPEAIDFASRLLQYSPSLRCTALEACAHPFFDELREPNARLPNGRPFPPLFNFKQEVAGSSPELVNKLIPDHIKRQLGLSFLNQSGT |  | binding result (DSK2A-MBP [2]): binds
5 | phosphorylated BES1-MBP (natural protein, Arabidopsis thaliana, UniProt Q9LN63 1-335, looked up, phosphorylated in vitro by BIN2-GST (sites not given)) MTSDGATSTSAAAAAAAMATRRKPSWRERENNRRRERRRRAVAAKIYTGLRAQGNYNLPKHCDNNEVLKALCSEAGWVVEEDGTTYRKGHKPLPGDMAGSSSRATPYSSHNQSPLSSTFDSPILSYQVSPSSSSFPSPSRVGDPHNISTIFPFLRNGGIPSSLPPLRISNSAPVTPPVSSPTSRNPKPLPTWESFTKQSMSMAAKQSMTSLNYPFYAVSAPASPTHHRQFHAPATIPECDESDSSTVDSGHWISFQKFAQQQPFSASMVPTSPTFNLVKPAPQQLSPNTAAIQEIGQSSEFKFENSQVKPWEGERIHDVAMEDLELTLGNGKAHS |  | binding result (DSK2A-HIS): binds

Now from value to binder, other results behind:

Row | binding result (DSK2A-MBP [1]) | Binder | other results
6 | binds | GST-ATG8i (natural protein, Arabidopsis thaliana, UniProt Q9LRP7 1-115, looked up) MKSFKEQYTLDERLAESREIIAKYPTRIPVIAEKYCKTDLPAIEKKKFLVPRDMSVGQFIYILSARLHLSPGKALFVFVNNTLPQTAALMDSVYESYKDDDGFVYMCYSSEKTFG | 
7 | binds | GST-ATG8e (natural protein, Arabidopsis thaliana, UniProt Q8S926 1-118, looked up) MNKGSIFKMDNDFEKRKAEAGRIREKYPDRIPVIVEKAEKSEVPNIDKKKYLVPSDLTVGQFVYVIRKRIKLSAEKAIFIFVDNVLPPTGELMSSVYEDKKDEDGFLYITYSGENTFG | 
